{"source": "paper PMC6919630", "about": "“Novel cholinesterase paralogs of Schistosoma mansoni have perceived roles in cholinergic signalling and drug detoxification and are essential for parasite survival” (PLoS Pathogens, 2019)", "key": {"SmBChE1 [1]": {"target": "T1, SmBChE1 (Schistosoma mansoni, UniProt A0A3Q0KKW0)", "T1 construct": "full length minus signal peptide, C-terminal 6-His tag (pPICZalphaA), secreted from Pichia pastoris X-33, IMAC purified; synthetic ORF", "T1 sequence (A0A3Q0KKW0 entry or part of it)": "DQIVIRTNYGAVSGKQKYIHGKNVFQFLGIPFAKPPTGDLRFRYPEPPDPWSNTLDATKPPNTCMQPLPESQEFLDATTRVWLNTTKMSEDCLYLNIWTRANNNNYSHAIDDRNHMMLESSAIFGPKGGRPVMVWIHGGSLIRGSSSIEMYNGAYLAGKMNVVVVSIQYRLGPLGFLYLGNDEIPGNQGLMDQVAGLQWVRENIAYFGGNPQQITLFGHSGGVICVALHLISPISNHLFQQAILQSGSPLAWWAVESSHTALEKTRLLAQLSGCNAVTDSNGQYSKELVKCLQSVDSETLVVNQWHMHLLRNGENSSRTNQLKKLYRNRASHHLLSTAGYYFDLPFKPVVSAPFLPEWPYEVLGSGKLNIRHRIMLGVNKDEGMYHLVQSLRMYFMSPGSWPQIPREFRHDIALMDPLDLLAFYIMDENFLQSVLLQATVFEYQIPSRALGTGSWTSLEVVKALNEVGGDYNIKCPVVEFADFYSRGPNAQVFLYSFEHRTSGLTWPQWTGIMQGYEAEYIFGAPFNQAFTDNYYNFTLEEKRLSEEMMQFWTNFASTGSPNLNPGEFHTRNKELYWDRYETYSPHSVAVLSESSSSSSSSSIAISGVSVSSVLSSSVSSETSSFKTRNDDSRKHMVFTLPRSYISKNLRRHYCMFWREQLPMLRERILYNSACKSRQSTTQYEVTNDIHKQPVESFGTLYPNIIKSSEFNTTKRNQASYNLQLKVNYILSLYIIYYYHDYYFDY", "assay": "Ellman assay, inhibition of BcSCh hydrolysis", "assay_type": "biochemical", "conditions": "BcSCh 2 mM; 20 min preincubation at RT; pH 7.4; organophosphate"}, "SmAChE1": {"target": "T2, SmAChE1 (Schistosoma mansoni, UniProt Q71SU7)", "T2 construct": "full length minus signal peptide, C-terminal 6-His tag (pPICZalphaA), secreted from Pichia pastoris X-33, IMAC purified; synthetic ORF", "T2 sequence (Q71SU7 entry or part of it)": "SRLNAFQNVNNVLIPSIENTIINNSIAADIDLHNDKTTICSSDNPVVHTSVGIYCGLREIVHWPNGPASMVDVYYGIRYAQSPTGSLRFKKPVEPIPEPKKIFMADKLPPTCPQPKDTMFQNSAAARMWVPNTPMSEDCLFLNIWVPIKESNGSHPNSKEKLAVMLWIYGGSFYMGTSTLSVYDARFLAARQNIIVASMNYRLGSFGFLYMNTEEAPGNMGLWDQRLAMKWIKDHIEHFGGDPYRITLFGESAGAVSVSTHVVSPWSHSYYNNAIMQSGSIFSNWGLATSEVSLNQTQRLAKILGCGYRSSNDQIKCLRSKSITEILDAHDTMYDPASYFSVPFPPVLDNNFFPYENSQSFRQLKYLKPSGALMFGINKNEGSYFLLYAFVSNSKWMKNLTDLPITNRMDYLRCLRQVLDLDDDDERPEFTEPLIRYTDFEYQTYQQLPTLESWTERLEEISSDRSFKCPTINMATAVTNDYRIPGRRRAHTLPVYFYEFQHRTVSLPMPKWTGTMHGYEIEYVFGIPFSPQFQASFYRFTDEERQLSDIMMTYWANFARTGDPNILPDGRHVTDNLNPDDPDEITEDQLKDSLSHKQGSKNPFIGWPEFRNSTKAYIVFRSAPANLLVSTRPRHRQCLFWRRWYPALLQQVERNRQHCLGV", "assay": "Ellman assay, inhibition of AcSCh hydrolysis", "assay_type": "biochemical", "conditions": "AcSCh 2 mM; 20 min preincubation at RT; pH 7.4; organophosphate"}, "SmAChE2": {"target": "T3, SmAChE2 (Schistosoma mansoni, UniProt A0A3Q0KMM5)", "T3 construct": "full length minus signal peptide, C-terminal 6-His tag (pPICZalphaA), secreted from Pichia pastoris X-33, IMAC purified; synthetic ORF", "T3 sequence (A0A3Q0KMM5 entry or part of it)": "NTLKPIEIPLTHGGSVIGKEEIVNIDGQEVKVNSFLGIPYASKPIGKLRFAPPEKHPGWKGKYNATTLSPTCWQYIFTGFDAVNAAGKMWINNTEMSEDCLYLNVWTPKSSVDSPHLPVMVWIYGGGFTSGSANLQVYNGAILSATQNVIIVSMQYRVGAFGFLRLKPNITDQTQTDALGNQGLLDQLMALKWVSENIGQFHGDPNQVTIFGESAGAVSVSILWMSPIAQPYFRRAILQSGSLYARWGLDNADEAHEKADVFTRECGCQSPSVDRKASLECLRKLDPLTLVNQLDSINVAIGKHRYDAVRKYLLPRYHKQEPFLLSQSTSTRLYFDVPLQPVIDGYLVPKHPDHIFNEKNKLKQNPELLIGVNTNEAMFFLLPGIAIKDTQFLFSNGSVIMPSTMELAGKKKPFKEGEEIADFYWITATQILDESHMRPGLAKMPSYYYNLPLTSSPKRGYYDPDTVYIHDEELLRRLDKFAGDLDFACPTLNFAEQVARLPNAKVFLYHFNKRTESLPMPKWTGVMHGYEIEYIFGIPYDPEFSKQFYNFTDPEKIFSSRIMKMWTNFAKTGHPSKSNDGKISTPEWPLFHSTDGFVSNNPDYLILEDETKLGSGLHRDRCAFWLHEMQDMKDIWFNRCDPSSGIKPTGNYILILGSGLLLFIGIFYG", "assay": "Ellman assay, inhibition of AcSCh hydrolysis", "assay_type": "biochemical", "conditions": "AcSCh 2 mM; 20 min preincubation at RT; pH 7.4; organophosphate"}, "SmBChE1 [2]": {"target": "T1, SmBChE1", "assay": "Ellman assay, inhibition of BcSCh hydrolysis", "assay_type": "biochemical", "conditions": "BcSCh 2 mM; 20 min preincubation at RT; pH 7.4"}, "CC(=O)SCC[N+](C)(C)C": {"test_system": "CC(=O)SCC[N+](C)(C)C", "assay": "purified protein", "assay_type": "biochemical, Schistosoma mansoni", "conditions": "0.1 M sodium phosphate, pH 7.4, 0.5 mM DTNB"}, "CCCC(=O)SCC[N+](C)(C)C": {"test_system": "CCCC(=O)SCC[N+](C)(C)C", "assay": "purified protein", "assay_type": "biochemical, Schistosoma mansoni", "conditions": "0.1 M sodium phosphate, pH 7.4, 0.5 mM DTNB"}}}
{"molecule": "COP(=O)(OC)OC=C(Cl)Cl", "note": "[DDVP, 2,2-dichlorovinyl dimethyl phosphate]", "values": [{"measurement": "inhibition at 1, 5 and 10 μM", "setting": "SmBChE1 [1]", "result": "BChE activity of schistosome extracts and recombinant SmBChE1 significantly decreased in the presence of"}, {"measurement": "inhibition at 1 μM", "setting": "SmAChE1", "result": "preferred substrate activity of both SmAChE1 and SmAChE2 was inhibited by DDVP"}, {"measurement": "inhibition at 1 μM", "setting": "SmAChE2", "result": "preferred substrate activity of both SmAChE1 and SmAChE2 was inhibited by DDVP"}]}
{"molecule": "CC(C)NP(=O)(NC(C)C)OP(=O)(NC(C)C)NC(C)C", "note": "[iso-OMPA]", "values": [{"measurement": "inhibition at 1 mM", "setting": "SmBChE1 [2]", "result": "iso-OMPA, a specific inhibitor of BChE, only inhibited SmBChE1 activity"}]}
{"molecule": "SmAChE2 (Schistosoma mansoni)", "values": [{"measurement": "Km", "setting": "CC(=O)SCC[N+](C)(C)C", "result": "10.87 ± 6.17", "unit": "mM"}, {"measurement": "Vmax", "setting": "CC(=O)SCC[N+](C)(C)C", "result": 0.00559, "unit": "µmol/min/mg"}]}
{"molecule": "SmBChE1 (Schistosoma mansoni)", "values": [{"measurement": "Km", "setting": "CCCC(=O)SCC[N+](C)(C)C", "result": "34.38 ± 12.71", "unit": "mM"}, {"measurement": "Vmax", "setting": "CCCC(=O)SCC[N+](C)(C)C", "result": "0.0017 ± 9e-05", "unit": "µmol/min/mg"}]}
{"molecule": "SmAChE1 (Schistosoma mansoni)", "values": [{"measurement": "Km", "setting": "CC(=O)SCC[N+](C)(C)C", "result": "5.83 ± 1.62", "unit": "mM"}, {"measurement": "Vmax", "setting": "CC(=O)SCC[N+](C)(C)C", "result": 0.00557, "unit": "µmol/min/mg"}]}
